Values belong to the binder of their own block, whether it stands above or below them.
Tests used:
[1] = biological target: T1, human FSH receptor (human, UniProt P23945 18-695); assay: hormone-receptor complex formation (Table 1D)
T1 construct: whole, on cells; also called hFSH receptors
T1 sequence (looked up): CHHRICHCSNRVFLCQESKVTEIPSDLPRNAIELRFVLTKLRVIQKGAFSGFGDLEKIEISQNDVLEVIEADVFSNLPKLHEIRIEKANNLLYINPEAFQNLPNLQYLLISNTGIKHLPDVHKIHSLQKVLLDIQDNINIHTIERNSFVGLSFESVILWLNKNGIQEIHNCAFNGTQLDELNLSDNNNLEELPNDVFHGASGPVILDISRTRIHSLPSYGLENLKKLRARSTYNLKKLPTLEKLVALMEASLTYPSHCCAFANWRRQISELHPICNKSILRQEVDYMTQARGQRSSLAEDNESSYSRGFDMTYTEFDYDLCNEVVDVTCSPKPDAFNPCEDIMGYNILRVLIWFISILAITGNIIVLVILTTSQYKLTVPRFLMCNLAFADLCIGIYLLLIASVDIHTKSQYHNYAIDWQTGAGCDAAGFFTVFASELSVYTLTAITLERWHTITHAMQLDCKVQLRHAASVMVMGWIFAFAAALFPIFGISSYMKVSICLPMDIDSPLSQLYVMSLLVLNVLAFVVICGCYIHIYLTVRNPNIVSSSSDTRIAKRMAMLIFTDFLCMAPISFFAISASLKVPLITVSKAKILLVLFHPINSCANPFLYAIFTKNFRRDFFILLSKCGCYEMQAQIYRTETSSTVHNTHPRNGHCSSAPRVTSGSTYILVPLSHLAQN

[2] = biological target: T2, rat LH receptor (rat, UniProt P16235 27-700); assay: hormone-receptor complex formation (Table 1D)
T2 construct: whole, on cells; also called LH receptors

[3] = biological target: T2, rat LH receptor; assay: inhibition of radiolabeled hCG binding to LH receptors (FIG. 22)
[4] = biological target: T1, human FSH receptor; assay: receptor binding and signal transduction assays
[5] = biological target: T2, rat LH receptor; assay: receptor binding and signal transduction assays
[6] = biological target: T2, rat LH receptor; assay: inhibition of radiolabeled hCG binding to LH receptors (FIG. 23)
[7] = biological target: T2, rat LH receptor; assay: competition with radiolabeled hCG on CHO cells expressing LH receptors (FIG. 18)
From the text: (§1) These employed CHO cells that had been transfected with the genes encoding the LH receptor cDNA and that therefore express functional LH receptors on their surfaces.

[8] = biological target: T2, rat LH receptor; assay: inhibition of 125I-hCG binding to CHO cells expressing LH receptors (FIG. 30)
From the text: as §1

[9] = biological target: T2, rat LH receptor; assay: inhibition of 125I-hCG binding to CHO cells expressing LH receptors (FIG. 17)
From the text: as §1

[10] = biological target: T2, rat LH receptor; assay: inhibition of 125I-hCG binding to 200,000 CHO cells that express LH receptors (FIG. 6)
From the text: as §1

T2 sequence (P16235 27-700): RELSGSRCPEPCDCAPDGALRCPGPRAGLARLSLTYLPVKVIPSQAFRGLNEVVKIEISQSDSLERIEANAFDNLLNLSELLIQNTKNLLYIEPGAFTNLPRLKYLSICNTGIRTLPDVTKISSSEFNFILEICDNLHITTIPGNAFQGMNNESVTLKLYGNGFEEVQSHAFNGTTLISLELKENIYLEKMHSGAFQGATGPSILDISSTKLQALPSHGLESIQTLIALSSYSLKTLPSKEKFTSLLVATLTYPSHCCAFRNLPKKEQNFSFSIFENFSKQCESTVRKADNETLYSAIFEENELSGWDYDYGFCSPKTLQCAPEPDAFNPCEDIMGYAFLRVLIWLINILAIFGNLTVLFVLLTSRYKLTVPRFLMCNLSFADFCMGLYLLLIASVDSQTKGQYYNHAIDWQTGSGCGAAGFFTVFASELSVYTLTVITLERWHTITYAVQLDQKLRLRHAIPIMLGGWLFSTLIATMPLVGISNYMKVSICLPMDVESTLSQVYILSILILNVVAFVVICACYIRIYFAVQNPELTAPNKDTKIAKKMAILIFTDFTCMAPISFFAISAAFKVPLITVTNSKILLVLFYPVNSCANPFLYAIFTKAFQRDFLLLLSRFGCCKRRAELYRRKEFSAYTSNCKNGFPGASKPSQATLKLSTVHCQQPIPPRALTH

fold less active than CFC101-114 in inhibiting radiolabeled hCG binding [3]: ~100 fold
B2: CFC101-114(α51-β99) (ligand)
chain 1: not shown
chain 2: SKEPLRPRCRPINATLAVEKEGCPVCITVNTTICAGYCPTMTRVLQGVLPALPQVVCNYRDVRFESIRLPGCPRGVNPVVSYAVALSCQCALCRRSTTCCTVRGLGPSYCSFGEFQDSSSSKAPPPSLPSPSRLPGPSDTPILPQ
notes: Intersubunit disulfide αCys51-βCys99; also called CFC101(α51-β99)

binding result [4]: binds | binding result [5]: binds
B8: CFC101-114(α31-β37) (ligand)
chain 1: not shown
chain 2: SKEPLRPRCRPINATLAVEKEGCPVCITVNTTICAGCCPTMTRVLQGVLPALPQVVCNYRDVRFESIRLPGCPRGVNPVVSYAVALSCQCALCRRSTTDCTVRGLGPSYCSFGEFQDSSSSKAPPPSLPSPSRLPGPSDTPILPQ
notes: Intersubunit disulfide αCys31-βCys37

binding result [8]: binds
B9: hCG(α31-β37, α51-β99) (ligand)
chain 1: not shown
chain 2: SKEPLRPRCRPINATLAVEKEGCPVCITVNTTICAGCCPTMTRVLQGVLPALPQVVCNYRDVRFESIRLPGCPRGVNPVVSYAVALSCQCALCRRSTTCCGGPKDHPLTCDDPRFQDSSSSKAPPPSLPSPSRLPGPSDTPILPQ
notes: Two intersubunit disulfides; also called α(C7S,K51C) + hCGβ′(Y37C,D99C)

binding result [10]: binds
B11: hCG(α31-β37) (ligand)
chain 1: not shown
chain 2: SKEPLRPRCRPINATLAVEKEGCPVCITVNTTICAGCCPTMTRVLQGVLPALPQVVCNYRDVRFESIRLPGCPRGVNPVVSYAVALSCQCALCRRSTTDCGGPKDHPLTCDDPRFQDSSSSKAPPPSLPSPSRLPGPSDTPILPQ
notes: Intersubunit disulfide αCys31-βCys37; also called hCG3(α31-β37); crosslinked hCG analog

The next lines start with the binder.

B1: CF101-109 (ligand)
chain 1: not shown
chain 2: SKEPLRPRCRPINATLAVEKEGCPVCITVNTTICAGYCPTMTRVLQGVLPALPQVVCNYRDVRFESIRLPGCPRGVNPVVSYAVALSCQCALCRRSTTDCTVRGLGPSYCDDPRFQDSSSSKAPPPSLPSPSRLPGPSDTPILPQ
binding result [1]: binds | binding result [2]: binds

B3: CFC101-114 (ligand)
chain 1: not shown
chain 2: SKEPLRPRCRPINATLAVEKEGCPVCITVNTTICAGYCPTMTRVLQGVLPALPQVVCNYRDVRFESIRLPGCPRGVNPVVSYAVALSCQCALCRRSTTDCTVRGLGPSYCSFGEFQDSSSSKAPPPSLPSPSRLPGPSDTPILPQ
notes: also called bifunctional hCG/hFSH chimeric analog
binding result [4]: binds | binding result [5]: binds

B4: CFC101-114(α-βD99C) (ligand)
chain 1: not shown
chain 2: SKEPLRPRCRPINATLAVEKEGCPVCITVNTTICAGYCPTMTRVLQGVLPALPQVVCNYRDVRFESIRLPGCPRGVNPVVSYAVALSCQCALCRRSTTCCTVRGLGPSYCSFGEFQDSSSSKAPPPSLPSPSRLPGPSDTPILPQ
binding result [3]: binds

B5: CFC101-114(αK51A-β) (ligand)
chain 1: not shown
chain 2: SKEPLRPRCRPINATLAVEKEGCPVCITVNTTICAGYCPTMTRVLQGVLPALPQVVCNYRDVRFESIRLPGCPRGVNPVVSYAVALSCQCALCRRSTTDCTVRGLGPSYCSFGEFQDSSSSKAPPPSLPSPSRLPGPSDTPILPQ
notes: built on the mature α-subunit entry
binding result [6]: binds

B6: CFC101-114(αK51C-β) (ligand)
chain 1: not shown
chain 2: SKEPLRPRCRPINATLAVEKEGCPVCITVNTTICAGYCPTMTRVLQGVLPALPQVVCNYRDVRFESIRLPGCPRGVNPVVSYAVALSCQCALCRRSTTDCTVRGLGPSYCSFGEFQDSSSSKAPPPSLPSPSRLPGPSDTPILPQ
binding result [3]: binds

B7: hCG(αK51A-β) (ligand)
chain 1: not shown
chain 2: SKEPLRPRCRPINATLAVEKEGCPVCITVNTTICAGYCPTMTRVLQGVLPALPQVVCNYRDVRFESIRLPGCPRGVNPVVSYAVALSCQCALCRRSTTDCGGPKDHPLTCDDPRFQDSSSSKAPPPSLPSPSRLPGPSDTPILPQ
notes: as for B5
binding result [7]: binds

B10: hCG(α-βD99C) (ligand)
chain 1: not shown
chain 2: SKEPLRPRCRPINATLAVEKEGCPVCITVNTTICAGYCPTMTRVLQGVLPALPQVVCNYRDVRFESIRLPGCPRGVNPVVSYAVALSCQCALCRRSTTCCGGPKDHPLTCDDPRFQDSSSSKAPPPSLPSPSRLPGPSDTPILPQ
notes: also called hCG(α-β99)
binding result [9]: binds
